Measured values from article PMC12668182.
One block for each substance: values may come before it.

Tests used:
[1] = target: HaloTag-CSB, full length, JaneliaFluor-labelled (human) (UniProt Q03468); experiment: single-molecule fluorescence on tethered DNA (SMADNE, LUMICKS C-Trap); oligomerisation state of HaloTag-CSB (photon counts) in events colocalised with SNM1A on lambda dsDNA; DNA present
[2] = target: HaloTag-CSB, full length, JaneliaFluor-labelled (human) (UniProt Q03468); experiment: single-molecule fluorescence on tethered DNA (SMADNE, LUMICKS C-Trap); oligomerisation state of HaloTag-CSB (photon counts) at the site-specific ICL repair intermediate, alone or colocalised with SNM1A; DNA present
[3] = target: HaloTag-CSB, full length, JaneliaFluor-labelled (human) (UniProt Q03468); experiment: single-molecule fluorescence on tethered DNA (SMADNE, LUMICKS C-Trap); two-colour HaloTag-CSB nuclear extracts (JF552 and JF635) on lambda dsDNA; colocalisation and photon counts; 20 mM HEPES pH 7.5, 10% glycerol, 1 mM DTT, 1 mM MgCl2; 30 C; DNA present
[4] = system: HaloTag-CSB full-length (nuclear extract, SMADNE);HaloTag-SNM1A catalytic domain; experiment: single-molecule (optical tweezers C-Trap); conditions: EMSA: 20 mM HEPES-KOH pH 7.5, 50 mM KCl, 0.05% Triton X-100, 0.5 mM TCEP, 5% glycerol, 1 nM oligo, 4 C, C-Trap: 20 mM HEPES pH 7.5, 10% glycerol, 1 mM DTT
[5] = system: HaloTag-SNM1A catalytic domain; experiment: single-molecule (optical tweezers C-Trap); conditions: EMSA: 20 mM HEPES-KOH pH 7.5, 50 mM KCl, 0.05% Triton X-100, 0.5 mM TCEP, 5% glycerol, 1 nM oligo, 4 C, C-Trap: 20 mM HEPES pH 7.5, 10% glycerol, 1 mM DTT
[6] = target: full-length CSB (ERCC6), wild type, recombinant (human) (UniProt Q03468); experiment: SEC; purification of full-length CSB alone on Superdex S200; retention volume compared with calibration curves; 50 mM HEPES pH 8, 300 mM NaCl, 1 mM TCEP; monomer to dimer
[7] = system: HaloTag-CSB full-length (nuclear extract, SMADNE); experiment: single-molecule (SMADNE, optical tweezers C-Trap); conditions: EMSA: 20 mM HEPES-KOH pH 7.5, 50 mM KCl, 0.05% Triton X-100, 0.5 mM TCEP, 5% glycerol, 1 nM oligo, 4 C, C-Trap: 20 mM HEPES pH 7.5, 10% glycerol, 1 mM DTT
[8] = triazole click ICL (azide-C6-amino-dA x octadiynyl-dU), 5'P flap

percent of CSB:SNM1A colocalisation events on lambda DNA in which CSB was a dimer [1]: 73% | percent of CSB events at the ICL repair intermediate that were dimeric [2]: 78% | percent of SNM1A:CSB events on ICL repair intermediates with dimeric CSB [2]: 90% | percent of CSB binding events on lambda DNA that were dimeric [3]: 35% | percent of single colour tracks in which a dimeric CSB bound to DNA [3]: 20%
Substance: HaloTag-CSB, full length, JaneliaFluor-labelled (from UniProt Q03468 1-1493) (natural protein)

Substance: ICL flap repair intermediate (C-Trap)
Kd [4, 8]: 45 nM | Kd [5, 8]: 355 nM

stoichiometry N [6]: 2
Substance: full-length CSB (ERCC6), wild type, recombinant (from UniProt Q03468 1-1493) (natural protein)

Substance: lambda DNA (undamaged)
Kd [7]: 1.2 nM | Kd [4]: 17.5 nM | Kd [5]: 21.8 nM
